This data set deals with the molecule itself. In words: gel filtration chromatography (Superdex 200 5/150 GL) of the purified protein; self-association. The text has this: Gel filtration analysis was used to verify the expected molecular weight of the purified OgLuc proteins based on the theoretical values and consequently to determine their oligomeric state. A comparison between the relative hydrodynamic volume of the OgLuc variants C1+A4E and 9B8 was made by gel filtration chromatography. For this analysis, the nucleotide sequence for the OgLuc variants, C1+A4E and 9B8, were cloned into a HQ-Tagged Flexi® Vector (Promega Corp.) to create a HQHQHQ (SEQ ID NO: 580) N-terminally tagged protein that was overexpressed in E. coli KRX cells. The overexpressed proteins were purified using the HisLink™ Protein Purification System (Promega Corp.) according to manufacturer's instructions. Samples of each individual standard and sample protein were analyzed by gel filtration chromatography, which was performed at 24° C. on an Agilent 1200 HPLC, using a Superdex 200 5/150 GL column (GE Healthcare) with a flow rate of 0.25 mL/min (FIGS. 43A-B). The mobile phase (i.e., running buffer) consisted of 50 mM Tris and 150 mM NaCl, pH 7.5. Protein elution was monitored at 214 and 280 nm. A standard calibration curve was generated using: 1) Ovalbumin, 43 kDa (GE Healthcare), 2) Carbonic Anhydrase, 29 kDa (Sigma) and 3) Myoglobin, 17 kDa (Horse Heart, Sigma). The molecular weights of the purified proteins were calculated directly from the calibration curve.
Background: In gel filtration, larger molecules generally elute earlier.

B1: OgLuc variant 9B8, HQHQHQ N-terminally tagged (enzyme)
chain: HQHQHQFTLEDFVGDWRQTAGYNLDQVLEQGGLSSLFQKLGVSVTPIQKIVLSGENGLKIDIHVIIPYEGLSGYQMGQIEKIFKVVYPVDDHHFKVILHYGTLVIDGVTPNMIDYFGRPYEGIAVFDGKKITVTGTLWNGNKIIDERLINPDGSLLFRVTINGVTGWRLCERILA
notes: Overexpressed in E. coli KRX and purified with the HisLink Protein Purification System for gel filtration
With B1, the binding result is “no binding”.

The values above are taken from patent US20150064731A1 (PROMEGA, published 2015).
